The values that follow come from article doi:10.1101/2025.11.16.688667.

The target in the assay is Rabbit skeletal actin (actin filaments) (rabbit) (UniProt P68135). The assay is described as follows: high-speed atomic force microscopy.

Substance “Recombinant human alpha-actinin-1 ABD-E235K (from UniProt P12814 1-892) (domain or fragment)” came in with a dwell time at 1 uM ABD-E235K of 0.39 s, a dwell time at 2 uM ABD-E235K of 0.4 s and a dwell time at 3 uM ABD-E235K of 0.51 s.
